Test results reported in US20210087238A1, “CELL PENETRATING PEPTIDES AND RELATED COMPOSITIONS AND METHODS” (Phylogica Limited, priority 2017, published 2021).

Biological target: MDM2 (UniProt Q00987)
Assay: cell-based or functional assay

Sequence of UniProt Q00987 (Q00987 whole entry): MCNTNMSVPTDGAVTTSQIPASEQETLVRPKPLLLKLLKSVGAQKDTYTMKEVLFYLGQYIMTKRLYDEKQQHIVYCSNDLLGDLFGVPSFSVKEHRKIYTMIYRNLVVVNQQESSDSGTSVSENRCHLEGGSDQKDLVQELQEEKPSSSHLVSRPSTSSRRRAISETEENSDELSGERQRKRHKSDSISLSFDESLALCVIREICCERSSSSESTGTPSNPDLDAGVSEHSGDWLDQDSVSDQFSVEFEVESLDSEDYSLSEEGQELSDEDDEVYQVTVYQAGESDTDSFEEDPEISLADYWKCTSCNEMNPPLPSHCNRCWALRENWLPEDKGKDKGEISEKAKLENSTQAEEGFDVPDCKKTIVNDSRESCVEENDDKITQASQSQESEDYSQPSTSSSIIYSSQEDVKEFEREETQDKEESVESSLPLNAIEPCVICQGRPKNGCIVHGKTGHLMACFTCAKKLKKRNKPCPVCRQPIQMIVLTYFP

TAT_^DPMIα (peptide)
IC50, viability of T47D cells after 48 h (resazurin reduction): 36.6 µM
